# Experiment: soluble on expression in E. coli; label from the status in PepcDB or PDB records
row,Sequence,soluble on expression in E. coli
1,MAHHHHHHMLKHPQAALLFVHNSSDLFQNDTLGVLRNKTKIQNKKKISRFKIQSSEERHTDGGLHYDLTPENVEKVLNLIRPKLQIDNGDVELVDIKNNDLYIKLLGNCVTCSSNSVTVSQVIKKTLKMYIRNEKNEEPNVIITNFDEINEENIHSCLSDLKPYFDFLSKWHTGGGTPLGVMLGGRGSYSKEKRPFKGGDPSHSISSTPPPLKRAKRSTV,not soluble
2,MGSDKIHHHHHHMYRKDLDHYLKQRLPKAVFLYGEFDFFIHYYIQTISALFKCDNPDIETSLFYASDYEKSQIATLLEQDSLFGGSSLVVLKLDFALHKKFKENDINLFLKALERPSHNRLIIGLYNAKSDTTKYKYTSDAIVKFFQKSPLKDEAICARFFIPKTWESLKFLQERANFLHLDISGHLLNALFEINNEDLGVSFNDLDKLAVLNAPITLEDIQELSSNAGDMDLQKLILGLFLKKSALDIYDYLLKEGKKDADILRGLERYFYQLFLFFAHIKTTGLMDAKEVLGYAPPKEIAENYAKNALRLKEAGYKRVFEIFRLWHIQSMQGQKELGFLYLTSIQKIINP,not soluble
3,KTRPYMEEVLYVWKLKQLHNKIFRKLKSIKAAASNDDVKALTTLKFYYTTQRQVFELDNNTLTMSSVNKELEAIDQIEVDKSLHLDIASFEEGWIDTY,soluble
4,GPGSMPSITQETLRRRAEFVRTGGRGSVRRTVKVAHRNTGDDKKVQQVLKRLNVSPFNDVDDAVLYRHDGTAYYFEKPKVQASMQSQCFVVSGAYDVKEASEVPS,not soluble
5,MLQALLDSKDFLALTLANPQTLGDEFSFTLGEHTRVNVWDTGVIVFEPAQPQGKDVILSCGVHGNETAPIELCNTLIKQLLQQKIIAKQRTLFLIGNPLAINNGTRIIDENMNRLFSGEHSNPPGLVNPERLRAKKLETYVDRFFKAAAAGRQRIHYDLHTAMRASKHEKFAIYPYRPGRAYSAEQIMFLAASGVDTVLFHHEPTTTFSYFSSEQYGADAFTIELGKVYPMGQNDMTRFIAAQEMFTRLITDKPLQLESFSTDKVNLYQVCRVINKHFDDFEFTFATDVENFRAFPKGFVLAREGGQEIKVEQEVESIVFPNAKVPIGNRTVICLIPSVAPDVRLEHHHHHH,soluble
6,SRIVAPPKNYPDSSQHEWVSLTRISKNMQLAVIATEDQKFPHHYGVDFESLFDVISEAGDHGPSRGASTITQQAAKNVFLFPSHSYVRKAYELYFALLMELMWSKERILEVYLNVVEFGPGIYGAEAAAQNYFGVSAKQLSKWQAARLAVVLPNPYRIKVYPQSDYTARRTRWAMNQMSNLGSVQL,not soluble
7,MGHHHHHHSHMSEESDMDKAIKETSILEEYSINWTQKLGAGISGPVRVCVKKSTQERFALKILLDRPKARNEVRLHMMCATHPNIVQIIEVFANSVQFPHESSPRARLLIVMEMMEGGELFHRISQHRHFTEKQASQVTKQIALALRHCHLLNIAHRDLKPENLLFKDNSLDAPVKLCDFGFAKIDQGDLMTPQFTPYYVAPQVLEAQRRHQKEKSGIIPTSPTPYTYNKSCDLWSLGVIIYVMLCGYPPFYSKHHSRTIPKDMRRKIMTGSFEFPEEEWSQISEMAKDVVRKLLKVKPERRLTIEGVLDHPWLNSTEALDNVLPSAQLMMDKAVVAGIQQAHAEQLANMRIQDLKVSLKPLHSVNNPILRKRKLLGTKPKDSVYIHDHENGAEDSNVALEKLRDVIAQCILPQAGENEDEKLNEVMQEAWKYNRECKLLRDTLQSFSWNGRGFTDKVDRLKLAEIVKQVIEEQTTSHESQ,not soluble
8,PDAARKAQILWCQPDRAKAWTDWMRKGKFPVGGSICDNPVAETTSLGEQFGFNGTPTLVFPNGRSQSGYSPMPQLEEIIRKNQ,not soluble
9,MNKAIFLDRDGTLNIDYGYVHEIDNFKFIDGVIDALRELKKMGYMLVLVTNQSGIARGYFSEDQFLQLTEWMDWSLAEQDVDLDGIYYCPHHSEGKGEYKEDCDCRKPKSGMLLQAIKELKIDPTQSIMVGDKVEDLKAGIGAKVKMNVLVRTGKPVTGEGEGIADYVLDSIVDLPRILKRLKKLEHHHHHH,not soluble
10,MSLSNYISIKGAKVNNLKNIDVNIPRNKLVVITGLSGSGKSSLAFDTLYAEGQRRYVESLSSYARQFLGRMSKPECDFIKGIPPAIAIEQKVNSRNPRSTVGTSTEIYEYLRLLYARVGKTYSPISGQLVKKHSIEDIVNCMLSFPKGTKYTVLTPMMPREGRTLLQQLEMDLKQGFTRIEVNREIVRIEDFLQQTAAEDKKQNIYLLVDRMTADDSKDSISRLTDSAETAMYEGDGNCLLRFYSADGSTQLFSFSTKFETDGIKFEEPNDQMFSFNSPLGACPECEGFGKVIGIDEHLVIPNRALSVYDGAVLCWRGEKMGEWLQEFIHEAPAHDFPIFAPYYELTQEQKDYLWHGPRNKACIDSFFKMLEENQYKIQYRVMLARYRGKTICPVCHGTRLKKEAGYVKVGGKSISQLVDLPIHDLKEFFRTLELDAHDTAIAKRILTEITNRINFLMDVGLGYLTLNRLSNSLSGGESQRINLATSLGSSLVGSLYILDEPSIGLHSRDTDRLIKVLRQLQELGNTVVVVEHDEEIIRAADYIIDIGPQAGRLGGQIVYQGNMNDLQRNSNSYTVRYLLGEEGHHHHHH,not soluble
11,MSLARPLSFHEDRLFPSDPATRSYARGLYALVKDLPIISPHGHTDPSWFATNAPFQDATDLLLAPDHYLFRMLYSQGVSLDALKVRSKAGVPDTDPREAWRVFASHFYLFRGTPSWVWLNHVFSQVFGFTEFLEASNADDYFDRITAALATDAFRPRALFDRFNIETLATTEGPHESLQHHAAIRESGWGGHVITAYRPDAVIDFEDERSPRAFERFAETSGQDVYSWKSYLEAHRLRRQAFIDAGATSSDHGHPTAATADLSDVEAEALFNSLVKGDVTPEKAELFRAQMLTEMAKMSLDDGLVMQIHPGSHRNHNVGLLNSHGRDKGADIPMRTEYVDALKPLLTRLGNDPRLSIILFTLDETTYSRELAPLAGHYPVLKLGPSWWFHDSPEGMMRFREQVTETAGFYNTVGFNDDTRAFLSIPARHDVARRVDSAFLARMVAEHRMDLVEAEELIVDLTYNLPKKAYKLDQRPDWARPATLRAAAEEGHHHHHH,soluble
12,MSLKVRLEDVAKRLGVSVATVSRSLAGHPAISSETRGAVRAVASELGYRIPTQGRRGKKSSTKLIGVVVGALHNRFMTLLLTHLHDALQELGYQMTLVIDSMNDSQNLQALRPLIEGYLDGLIFATATLDSPVIAEMQRRAIPLVLVVRSVDDVRVDTVEIDNVHAGAVAAEHLYQLGHRRIGLVMGPQNTSTSRDRAKGALTYLADIGISSEAVTLMWSDYTTEAGYSSAMAIFNEADPVTAIVAGNDTIALGVLEAAARRAIKVPEQLSVIGFDDMPLAGSPLVALTSIRQPVRAMARTAARRLIDRIRAGGMGAPVHDVLPIQLVRRETTGPREGHHHHHH,soluble
13,MSLAASKGNLLSPDRILTVAHRGASGYVPEHTILSYETAQKMKADFIELDLQMTKDGKLIVMHDEKLDRTTNGMGWVKDHTLADIKKLDAGSWFNEAYPEKAKPQYVGLKVPTLEEVLDRFGKHANYYIETKSPDTYPGMEEKLIASLQKHKLLGKHSKPGQVIIQSFSKESLVKVHQLQPNLPTVQLLEAKQMASMTDAALEEIKTYAVGAGPDYKALNQENVRMIRSHGLLLHPYTVNNEADMHRLLDWGVTGVFTNYPDLFHKVKKGYEGHHHHHH,soluble
14,MERFDAVIIGAGAAGMFCAAQAGQAGSRVLLIDNGKKPGRKILMSGGGRCNFTNLYVEPAAYLSQNPHFCKSALARYTQWDFIDLVGRYGIAWHEKTLGQLFCDDSAQRIVDMLVAECDKGGVTMRLRSEVLSVERDESGFVLALNGETVTTQKLVIASGGLSMPGLGASPFGYKIAEQFGLKVLPTRAGLVPFTLHKPLLEQLQTLSGVSVPCVITARNGTVFRENLLFTHRGLSGPAVLQISSYWQPGELVSINLLPDLSLEDVLNEQRNAHPNQSLKNTLAMHLPKRLVECLQQLGLIPDVSLRQLNVRDQQTLVDTLTAWQVQPNGTEGYRTAEVTLGGVDTNELSSRTMEARRVPGLYFIGEVMDVTGWLGGYNFQWAWSSAWACAQDLIALKIN,soluble
15,MSLNSLPKNIAIYTRVSTEKQDSNNSKANQLESIKQYINNQGWSDVPYEIYSDTQSASITSNSLNMYNDSDTMNPSIFLRDGLRRLIYDANYKKFDKLIVYSHDRLSRDIYEGLLIKHTLKKLNIDILYSKAGEQINSENQSINNFFENMLSNIAALESSIIGGRVLIGNRHNILNNIWAGGPAPYGYKLIALPSNRKKSKLSIYAPEARVVKKIFELYTTGYTPKDIVQFIKSEYSYNKDRLWTINSIKSILNNPVYTGTMVWNKKGGKRNPRKHPIDEYVYSKFDENIRIIDEKLWKKSLNIRKLQDENPKFLSEGHHHHHH,soluble
16,MTDDVDTHIHEKFDLQKRLGKGAYGIVWKAYDKRSRETVALKKIFDAFRNPTDSQRTFREVMFLQEFGKHPNVIKLYNIFRADNDRDIYLAFEFMEADLHNVIKKGSILKDVHKQYIMCQLFRAIRFLHSGNVLHRDLKPSNVLLDADCRVKLADFGLARSLSSLEDYPEGQKMPDLTEYVATRWYRSPEILLAAKRYTKGVDMWSLGCILAEMLIGRALFPGSSTINQIERIMNTIAKPSRADIASIGSHYAASVLEKMPQRPRKPLDLIITQSQTAAIDMVQRLLIFAPQKRLTVEQCLVHPYVVQFHNPSEEPVLNYEVYPPLPDHIQLSIDDYRDRLYEMIDEKKASFKRIQHEKIRPYGEDKSRAPIAQAECSDTDYDTARSLQRTTSMDKNNSSSHDSSSGTLRERAASAESRTSKDSNGEMRNGNGNTPSSIKQRRRSVERARLFANIKPSKILHPHKLISNY,not soluble
17,MTQIGLYPSALTKPFELSLSAIKSVLEPENPSYSKRVPNCQKCGQHGRKSRLKGHKRSCPFRECPCAKVCVFSNKRSSRVSLE,not soluble
18,MNKYQAVIIGFGKAGKTLAVTLAKAGWRVALIEQSNAMYGGTCINIGCIPTKTLVHDAQQHTDFVRAIQRKNEVVNFLRNKNFHNLADMPNIDVIDGQAEFINNHSLRVHRPEGNLEIHGEKIFINTGAQTVVPPIPGITTTPGVYDSTGLLNLKELPGHLGILGGGYIGVEFASMFANFGSKVTILEAASLFLPREDRDIADNIATILRDQGVDIILNAHVERISHHENQVQVHSEHAQLAVDALLIASGRQPATASLHPENAGIAVNERGAIVVDKRLHTTADNIWAMGDVTGGLQFTYISLDDYRIVRDELLGEGKRSTDDRKNVPYSVFMTPPLSRVGMTEEQARESGADIQVVTLPVAAIPRARVMNDTRGVLKAIVDNKTQRMLGASLLCVDSHEMINIVKMVMDAGLPYSILRDQIFTHPSMSESLNDLFSLVK,soluble
19,MGSDKIHHHHHHMSSHLAHGMGTEPVEPDWPPLTEAEVADVVGPSRVVWRSPRPLSAAAVVERGGRRLFVKRHHLSVRTPEGLAEEHAFLRHLRERGAPVVEVLDVATRQEWVYEVHSAGLGTDLYRDDLSWSPFRSSTHARAAGAALARLHLAADGFEAPRRIPQPLVASFTIFAADDPGTALERYVAERPALAGALADHPWRADTRRVLLPLFERLAPHLPLLEPLWTHNDWHASNLLWDASGEVSTVLDFGMSDRTTAVHDLATAIERNAVQWLQPGFPVREQDVDALLDGYQSVRPLTVSESAALPELLPLVHAEFALSEMGYFHGITGSAENTRLAYAYLVDHAEWFTGDAGSHLVDRVRHRAAAAPKPPPAGRPLSDASS,not soluble
20,MGSDKIHHHHHHMLLGRTANGLYWMNRYIERAENMARLVDAGLRMALTRTQNASEEWNSVLLSAGSDVAFKQKYSDYTAADVADFLLRDTSNPSSTMSSIETARNNARMVRTALTRETWESINEAWMSLKRMLARPIDERDLPSVLDAIKRETALIRGSFYGTMLRNEIFDFSQLGTYVERADNTARILDVKYYVLLPSISWVGSTLDNYQWESILRSVSAHRSYRWVYDADYKPTNIADYLILNVRMPRSLTFCYRFLSEHLKFLSDDYGERHACHATAEKTQAMLRAGSIKDIFDAGLHEFLAGFIRDNTRLGDEIAQDYRFY,not soluble

# Source: the DeepSol protein solubility set
